The record followed here is article PMC4047914 (Cell Death & Disease, 2014).

Where a chain is given by its changes, count along the chain named. Numbers in names are those of the source. Where “and” joins values, the source holds several entries; their conditions need not be identical. Equal entries are not always repeated.

Series [1] deals with the molecule itself.
Series [2] deals with human ErbB2, wild type, transiently overexpressed in CHO-K1 cells from pCMV6-XL5-ERBB2 (human, UniProt P04626 23-1255). The series is described as follows: ELISA.
In series [3] the target is human ErbB2 stably overexpressed in CHO-K1 cells (CHO-K1/ErbB2 cells, pcDNA3-ERBB2) (human, UniProt P04626 23-1255). The series is described as follows: cross-linking.
In series [4] the target is ErbB2/delD2 (human ErbB2 lacking ECD subdomain D2) (human) (UniProt P04626). The series is described as follows: ELISA.
In series [5] the target is ErbB2/delD4 (human ErbB2 lacking ECD subdomain D4) (human) (UniProt P04626). Put plainly: ELISA.

B1: Recombinant human prolidase (PEPD), wild type (enzyme)
chain: MAAATGPSFWLGNETLKVPLALFALNRQRLCERLRKNPAVQAGSIVVLQGGEETQRYCTDTGVLFRQESFFHWAFGVTEPGCYGVIDVDTGKSTLFVPRLPASHATWMGKIHSKEHFKEKYAVDDVQYVDEIASVLTSQKPSVLLTLRGVNTDSGSVCREASFDGISKFEVNNTILHPEIVECRVFKTDMELEVLRYTNKISSEAHREVMKAVKVGMKEYELESLFEHYCYSRGGMRHSSYTCICGSGENSAVLHYGHAGAPNDRTIQNGDMCLFDMGGEYYCFASDITCSFPANGKFTADQKAVYEAVLRSSRAVMGAMKPGVWWPDMHRLADRIHLEELAHMGILSGSVDAMVQAHLGAVFMPHGLGHFLGIDVHDVGGYPEGVERIDEPGLRSLRTARHLQPGMVLTVEPGIYFIDHLLDEALADPARASFLNREVLQRFRGFGGVRIEEDVVVTDSGIELLTCVPRTVEEIEACMAGCDKAFTPFSGPK
As to B1, the “stoichiometry N” value is 2 in series [1]; 2 PEPD per 2 ErbB2 (heterotetramer) and 2 PEPD per 1 ErbB2 (heterotrimer) in series [3]. In addition, the Kd in series [2] turned out to be 7.3 nM. Further, the figures for the fold reduction of binding affinity against wild-type ErbB2 in series [4] and in series [5] were 3.5 fold and 51 fold, respectively.

B2: G278D-PEPD (human PEPD, G→D at amino acid no. 278) (enzyme)
chain: B1 chain with G278D
Turning to B2, the “stoichiometry N” value in series [1] worked out at 2.
